The source of these data is US20180037638A1 (SORRENTO THERAPEUTICS, published 2018).

One experiment addresses AIP4 (Staphylococcus aureus). Briefly: cell-based or functional assay.
For another experiment, the target named is AIP1 (Staphylococcus aureus). The experiment in a line: cell-based or functional assay.

B1: C7 (antibody, V domains shown)
VH: EVQLVQSGAEMKKPGASMKVSCKTSGYTFARKYMHWLRQAPGQGLEWMGIINPTGGTKSYAPKFQGRVTMTSDMSTNTVYMELNSLRSEDTAVYYCVSDDEEPVWGQGTMVTVSS
VL: QSALTQPPSVSKGLRQTATLTCTGNSNNVGSQGAAWLQQHQGHPPKVLSYRNNNRPSGISERFSASRSGNTASLTITGLQPEDEGDYYCSAWDSSLSAPVFGGGTKLTVL
As to B1, in the experiment with AIP4, the “Inhibition of AIP4 QS (IC50; nM), agr-driven YFP reporter strain MnTG” value turned out to be 86 nM. In addition, the “Inhibition of AIP1 QS (IC50; nM), agr-driven YFP reporter strain USA300-LAC” value with AIP1 is 110 nM.

B2: E7 (antibody, V domains shown)
VH: EVQLVQSGAEVKKPGASVRVSCKTSGYSFTSYDINWVRQTTGQGLEWMGWVNPTSGSTGYAQKFQGRVTMTANTAINTAYMELRDLRSEDTAVYFCVRDVPFDPWGQGTLVTVSS
VL: LQSVLTQPASVSGSPGQSITISCTGTSSDVGKYTFVSWYQQHPGKAPKVMVYEVNKRPLGVSPRFSGSKSGNTAYLTISGLQAEDEADYYCSSYTSSSTVVFGGGTKLTVL
B2: the “Inhibition of AIP4 QS (IC50; nM), agr-driven YFP reporter strain MnTG” value with AIP4 came to 53.5 nM. Besides, the “Inhibition of AIP1 QS (IC50; nM), agr-driven YFP reporter strain USA300-LAC” value with AIP1 worked out at 91.1 nM.
